The target of assay [1] is α-synuclein (αS) monomers, full-length 1-140 (UniProt P37840). Description: co-sedimentation.
For assay [2], the target named is TDP-43 PrLD sonicated fibrils (UniProt Q13148 267-414). Description: ThT fluorescence seeding kinetics.

“TDP-43 PrLD (residues 267-414) monomers, hexahistidine-TEV fusion construct (from UniProt Q13148 267-414) (domain or fragment)” gave a stoichiometry N (TDP-43 PrLD per αS) in assay [1] of 1.2.

B1: TDP-43 PrLD (residues 267-414) monomers, hexahistidine-TEV fusion construct (domain or fragment, UniProt Q13148 267-414, looked up)
chain: NRQLERSGRFGGNPGGFGNQGGFGNSRGGGAGLGNNQGSNMGGGMNFGAFSINPAMMAAAQAALQSSWGMMGMLASQQNQSGPSGNNQNQGNMQREPNQAFGSGNNSYSGSNSGAAIGWGSASNAGSGSGFNGGFGSSMDSKSSGWGM
In the case of B1, the binding result in assay [2] is “binds”.

These data come from article PMC8085152 (Journal of molecular biology, 2021).
